Ends that are not written are not given here.
Tests used:
human serum albumin [1] = molecular target: T1, human serum albumin (human, UniProt P02768 25-609); assay: SPR (BIAcore 3000), HSA on CM5 chip, polypeptide injected, 1:1 model
T1 construct: Bought protein; coated on plates (ELISA) or coupled to a CM5 chip (SPR); also called HSA; human albumin
Protocol: Signal of conjugated channel subtracted by that of unconjugated channel of injected solution was calculated as the amount of bound peptides during a defined period, as shown in FIG. 4. PBS buffer containing 0.05% Tween-20 was used for dilution of all samples. SPR curve was evaluated by BIAcore™ kinetics evaluation software (Version 4.1). […] Kd was calculated from binding rate (kₒₙ) and dissociating rate (koff), i.e. dissociation constant.

human serum albumin [2] = molecular target: T1, human serum albumin; assay: phage ELISA on plate-coated HSA, sample row, dilution column 3 of 12
human serum albumin [3] = molecular target: T1, human serum albumin; assay: phage ELISA on plate-coated HSA, sample row, dilution column 2 of 12
human serum albumin [4] = molecular target: T1, human serum albumin; assay: phage ELISA on plate-coated HSA, Table 3 absorbance (sample minus blank), dilution column 7 of 12
human serum albumin [5] = molecular target: T1, human serum albumin; assay: phage ELISA on plate-coated HSA, sample row, dilution column 1 of 12
human serum albumin [6] = molecular target: T1, human serum albumin; assay: phage ELISA on plate-coated HSA, Table 3 absorbance (sample minus blank), dilution column 2 of 12
human serum albumin [7] = molecular target: T1, human serum albumin; assay: phage ELISA on plate-coated HSA, Table 3 absorbance (sample minus blank), dilution column 6 of 12

T1 sequence (P02768 25-609 limits assumed): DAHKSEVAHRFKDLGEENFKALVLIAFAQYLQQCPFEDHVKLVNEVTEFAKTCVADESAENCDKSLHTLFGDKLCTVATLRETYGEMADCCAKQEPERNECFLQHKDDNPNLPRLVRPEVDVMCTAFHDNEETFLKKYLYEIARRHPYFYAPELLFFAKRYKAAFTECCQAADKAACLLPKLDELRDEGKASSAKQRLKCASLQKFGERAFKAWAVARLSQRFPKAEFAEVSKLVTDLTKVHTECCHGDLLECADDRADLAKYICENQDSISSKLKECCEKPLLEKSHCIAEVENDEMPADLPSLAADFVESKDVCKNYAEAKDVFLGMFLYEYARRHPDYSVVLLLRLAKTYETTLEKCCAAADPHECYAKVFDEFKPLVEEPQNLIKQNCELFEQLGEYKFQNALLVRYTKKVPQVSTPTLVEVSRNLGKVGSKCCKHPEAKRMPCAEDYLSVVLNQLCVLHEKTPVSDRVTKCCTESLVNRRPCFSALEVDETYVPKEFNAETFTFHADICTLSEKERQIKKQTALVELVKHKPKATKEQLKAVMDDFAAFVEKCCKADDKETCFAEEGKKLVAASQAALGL

B1: DP5.1 fusion polypeptide (peptide)
peptide: LPWHLKYREPPR
modifications: not fully specified; also: fusion polypeptide ABP-LK-GLP, linker and GLP-1 part not given here
notes: also called ABP-LK-GLP; not shown: rest of DP5.1 (any N-terminal Pro, linker, GLP-1 part) is printed nowhere
For B1, which Kd (human serum albumin [1]) is on record?
The Kd was 4.6 µM.

B2: Phage ID NO. 3 (M13 phage displaying the peptide of SEQ ID NO. 3, DICLPRWGCLWE) (peptide)
peptide: DICLPRWGCLWE
modifications: not fully specified (bridges); cysteine pairing not given here; also: displayed on M13 phage coat protein
notes: Tested as whole phage particles, not as free peptide; not shown: not described
How did the “absorbance at 405 nm” value (human serum albumin [2]) turn out when B2 was run?
The value was 0.1.

B3: Phage ID NO. 7 (M13 phage displaying the peptide of SEQ ID NO. 7, SLFRHQHATPQI) (peptide)
peptide: SLFRHQHATPQI
modifications: also: displayed on M13 phage coat protein
notes: as for B2
For B3, which “absorbance at 405 nm” value (human serum albumin [3]) is on record?
Its value is 0.08.

And the “absorbance at 405 nm” value (human serum albumin [4])?
The value was 0.1.

And the “absorbance at 405 nm” value (human serum albumin [5])?
The value was 0.08.

B4: Phage ID NO. 4 (M13 phage displaying the peptide of SEQ ID NO. 4, NICLPRWGCLWD) (peptide)
peptide: NICLPRWGCLWD
modifications: not fully specified (bridges); cysteine pairing not given here; also: displayed on M13 phage coat protein
notes: as for B2
How did the “absorbance at 405 nm” value (human serum albumin [6]) turn out when B4 was run?
Its value is 0.04.

What about the “absorbance at 405 nm” value (human serum albumin [5]) of the same binder?
Its value is 0.08.

B5: Phage ID NO. 5 (M13 phage displaying the peptide of SEQ ID NO. 5, LPWHLKYREPPR) (peptide)
peptide: LPWHLKYREPPR
modifications: also: displayed on M13 phage coat protein
notes: as for B2
B5 was tested. Which “absorbance at 405 nm” value (human serum albumin [7]) did it give?
Its value is 0.08.

Source: patent US20100075897A1, “METHOD FOR S[…] BIOACTIVE PEPTIDES AND APPLICATION THEREOF” (JINAN UNIVERSITY, priority 2008, published 2010)
